Assay results: PMC3037348, “Epstein-Barr Virus Nuclear Antigen 3C Facilitates G1-S Transition by Stabilizing and Enhancing the Function of Cyclin D1” (PLoS Pathogens, 2011)

Target: flag-tagged Cyclin D1 (UniProt P24385 1-295)
Assay: cell-based or functional assay

Sequence of flag-tagged Cyclin D1 (P24385 whole entry): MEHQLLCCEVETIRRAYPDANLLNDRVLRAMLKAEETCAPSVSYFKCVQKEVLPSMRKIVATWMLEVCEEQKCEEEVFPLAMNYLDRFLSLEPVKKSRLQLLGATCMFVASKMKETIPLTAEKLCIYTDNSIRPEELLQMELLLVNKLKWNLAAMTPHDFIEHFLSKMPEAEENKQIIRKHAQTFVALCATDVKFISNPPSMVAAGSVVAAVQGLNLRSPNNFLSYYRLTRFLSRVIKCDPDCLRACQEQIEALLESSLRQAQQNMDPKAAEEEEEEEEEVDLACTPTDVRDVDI

B1: myc-tagged full-length EBNA3C (residues 1-992) (natural protein)
chain: MESFEGQGDSRQSPDNERGDNVQTTGEHDQDPGPGPPSSGASERLVPEESYSRDQQPWGQSRGDENRGWMQRIRRRRRRRAALSGHLLDTEDNVPPWLPPHDITPYTARNIRDAACRAVKQSHLQALSNLILDSGLDTQHILCFVMAARQRLQDIRRGPLVAEGGVGWRHWLLTSPSQSWPMGYRTATLRTLTPVPNRVGADSIMLTATFGCQNAARTLNTFSATVWTPPHAGPREQERYAREAEVRFLRGKWQRRYRRIYDLIELCGSLHHIWQNLLQTEENLLDFVRFMGVMSSCNNPAVNYWFHKTIGNFKPYYPWNAPPNENPYHARRGIKEHVIQNAFRKAQIQGLSMLATGGEPRGDATSETSSDEDTGRQGSDVELESSDDELPYIDPNMEPVQQRPVMFVSRVPAKKPRKLPWPTPKTHPVKRTNVKTSDRSDKAEAQSTPERPGPSEQSSVTVEPAHPTPVEMPMVILHQPPPVPKPVPVKPTPPPSRRRRGACVVYDDDVIEVIDVETTEDSSSVSQPNKPHRKHQDGFQRSGRRQKRAAPPTVSPSDTGPPAVGPPAAGPPAAGPPAAGPPAAGPPAAGPPAAGPRILAPLSAGPPAAGPHIVTPPSARPRIMAPPVVRMFMRERQLPQSTGRKPQCFWEMRAGREITQMQQEPSSHLQSATQPTTPRPSWAPSVCALSVMDAGKAQPIESSHLSSMSPTQPISHEEQPRYEDPDAPLDLSLHPDVAAQPAPQAPYQGYQEPPAPQAPYQGYQEPPPPQAPYQGYQEPPAHGLQSSSYPGYAGPWTPRSQHPCYRHPWAPWSQDPVHGHTQGPWDPRAPHLPPQWDGSAGHGQDQVSQFPHLQSETGPPRLQLSLVPLVSSSAPSWSSPQPRAPIRPIPTRFPPPPMPLQDSMAVGCDSSGTACPSMPFASDYSQGAFTPLDINATTPKRPRVEESSHGPARCSQATAEAQEILSDNSEISVFPKDAKQTDYDASTESELD
in vitro kinase activity of flag-Cyclin D1/CDK6 immunoprecipitates toward histone H1, HEK 293T cells transfected with increasing amounts of myc-EBNA3C vector (0, 5, 15 µg): 1.6 fold | in vitro kinase activity of flag-Cyclin D1/CDK6 immunoprecipitates toward recombinant GST-pRb (residues 792-928), HEK 293T cells transfected with increasing amounts of myc-EBNA3C vector (0, 5, 15 µg): 2.3 fold
